Assays:
[1] = In-use stability of rhNGF lyophilized formulation (Formulation 6) after reconstitution: oxidized NGF impurity; format: physicochemical
Protocol: An in-use stability study of said rhNGF lyophilized formulation (according to Formulation 6) after reconstitution with sesamin-containing reconstitution solvent B or with WFI was carried out as follows.
The tests were performed on said lyophilized formulation reconstituted in solvent B or in WFI, stored at different temperatures (+2/+8° C. or 25° C.-60% Relative Humidity), over 28 days, to verify the possible impurity formation in rhNGF reconstituted liquid formulations, in glass vials.
The impurity was determined as the percentage (w/w) of oxidized NGF in respect of the total NGF comprised in the reconstituted liquid formulation.

[2] = topical administration, 200 μg/mL NGF; cited from earlier work
patients = settings: cited from earlier work
[3] = tested on: Dorsal Root Ganglia (DRG) neurons; assay: Levels of autophagy pathway proteins (Western blot) in F11 cells differentiated into DRGs; format: cell-based; settings: 24 h
Protocol: The effect of NGF on autophagy in the presence and absence of sesamin was assessed on Dorsal Root Ganglia (DRG) neurons, involved in the development of NGF sensory side effects, by analysing the impact of the different treatments on the levels of the above proteins involved in autophagy pathway. F11 cells were cultured in Dulbecco's modified Eagle's medium (DMEM, Cat #D6546; Sigma-Aldrich, St. Louis, MO, USA), with 10% fetal bovine serum, 2 mM glutamine (Sigma-Aldrich, USA). Cells were incubated at 37° C. in a humidified atmosphere with 5% CO2. Cells were then seeded at 7000 cells/cm^2 and were maintained in a low serum medium for almost 2 weeks to induce differentiation into DRGs. The complete composition of the low serum medium was: DMEM supplemented 2 mM glutamine, 1% FBS (Sigma-Aldrich, St. Louis, MO, USA). The medium was replaced every 2 days. Immunofluorescence was used to confirm cell differentiation (data not shown). F11 cells maintained in 10% FBS medium were used as control (control, undifferentiated). Morphological and functional analyses were performed after two weeks of treatment with low serum, at complete differentiation of the cells. The undifferentiated control cells underwent the same analysis at 7 days to avoid dramatic cell death due to confluence. The fully differentiated cells were treated with 1 μM rhNGF alone or in combination with 30 nM Sesamin, for 24 h. Control and treated cells were collected and lysed in ice-cold RIPA buffer (Thermo Scientific, USA) with freshly added protease and phosphatase inhibitors. Protein lysates (30 μg) were separated on 4%-12% precast gel using MOPS or MES buffers (Thermo Scientific, USA) depending on the size of the proteins of interest. Then proteins were electroblotted on polyvinyldifluoride membrane (PVDF; Sigma, St Loius, USA) and nonspecific binding sites were blocked in Blocking buffer (Thermo Scientific) for 15 minutes at RT. Afterward, membranes were incubated overnight at 4° C. with the following primary antibodies, diluted in Blocking buffer: rabbit anti-Atg5 1:1000 (Abcam, ab228668, UK), rabbit anti-LC3 1:2000 (Abcam, ab192890, UK), rabbit anti-Beclin 1:2000 (Abcam, ab207612, UK), rabbit anti-P62 1:500 (Abcam, ab91526, UK), rabbit anti-vinculin 1:1000 (Abcam, ab219649, UK) and HRP-conjugated Actin 1:1000 (Cell Signaling, #5125, USA). As secondary antibodies, peroxidase-conjugated anti-rabbit IgG 1:10000 (Abcam, UK) were used. Immunoreactive bands were visualized by ECL (Thermo Scientific, USA), according to the manufacturer's instructions. The relative optical densities of the immunoreactive bands were determined and normalized with respect to those of the anti-Vinculin or anti-Actin (depending on the molecular weight of the analyzed protein and the gel/buffer used), using ImageJ software. The phosphorylated forms were normalized upon the total form.

male Sprague-Dawley rats = assay: Eye wiping test (ocular discomfort after ocular administration); format: in vivo; settings: 3.5 μg/ml sesamin with 20 μg/ml rhNGF in Vehicle 2
Protocol: An eye wiping test was carried out to evaluate ocular discomfort induced by ocular administration of rhNGF alone or in combination with Sesamin.
The experiments were performed on male Sprague-Dawley rats (300-320 g), Charles River, Italy) housed in the animal care facility of the Department of Pharmacy, University of Naples. Food and water were available ad libitum.
Rats were divided in 4 experimental groups:
Animals were treated with 20 μg/ml of rhNGF in Vehicle 1 (n=8);
Animals were treated with 20 μg/ml of rhNGF and 3.5 μg/ml sesamin in Vehicle 2 (n=8) All compositions tested were prepared immediately before use from lyophilized placebo or rhNGF reconstituted in a volume of 1 mL of the vehicle.
The treatments described above were administered as eye drops 1 time per day, in a volume of 10 μL. Following the application, the eye wiping test was performed.
Animals were placed on a 50×50 cm table for 10 min habituation period. 10 μL of solutions were applied into the left eye of animals and the number of eye wipes was counted for 30 min.
All data are presented as the mean±SEM. Analysis of data were conducted using GraphPad Prism 8. Statistical analysis was performed by two-way ANOVA followed by Tukey's test for multiple comparisons, as appropriate. Statistical significance was set at *p<0.05.

[4] = differentiated F11 cells, 1 μM rhNGF alone, vs control (FIG. 1)

Row | Compound | NGF oxidation product % ([1]; reconstituted with WFI, +2/+8° C., day 0) [%] | NGF oxidation product % ([1]; reconstituted with WFI, +2/+8° C., day 28) [%] | NGF oxidation product % ([1]; reconstituted with WFI, +25° C./60% Relative Humidity, day 0) [%] | NGF oxidation product % ([1]; reconstituted with WFI, +25° C./60% Relative Humidity, day 28) [%] | NGF oxidation product % ([1]; reconstituted with reconstitution solvent B (sesamin 1.5 μg/mL), +2/+8° C., day 0) [%] | NGF oxidation product % ([1]; reconstituted with reconstitution solvent B (sesamin 1.5 μg/mL), +2/+8° C., day 28) [%] | NGF oxidation product % ([1]; reconstituted with reconstitution solvent B (sesamin 1.5 μg/mL), +25° C./60% Relative Humidity, day 0) [%] | NGF oxidation product % ([1]; reconstituted with reconstitution solvent B (sesamin 1.5 μg/mL), +25° C./60% Relative Humidity, day 28) [%] | levels of the protein in all ocular tissues, included the retina and optic nerve [2] | time of peak increase in ocular tissues after administration [2] [h] | primary side effect reported by patients after topical ocular administration (patients; clinical trials or approved indications, mild and transient) | safety of topical administration on the ocular surface (patients; clinical trials) | level of P62 (autophagy-specific substrate) [3, 4] | levels of Atg5 [3, 4] | levels of Beclin [3, 4] | levels of LC3-I [3, 4] | levels of LC3-II [3, 4] | autophagy ([3]; 30 nM Sesamin combined with 1 μM rhNGF, vs NGF alone) | eye discomfort induced by rhNGF (male Sprague-Dawley rats)
1 | rhNGF: recombinant human nerve growth factor, amino acid sequence SEQ ID NO. 1 and/or SEQ ID NO. 2 | 4.00 | 4.86 | 4.00 | 6.48 | 3.11 | 4.21 | 3.11 | 5.06 | high levels | 6 | eye discomfort | safe | decreased | significantly increased | significantly increased | increased levels | increased levels |  | 
2 | c1cc2c(cc1[C@H]1OC[C@H]3[C@@H]1CO[C@@H]3c1ccc3c(c1)OCO3)OCO2 [sesamin, 5,5′-[(1S,3aR,4S,6aR)-Tetrahydro-1H,3H-furo[3,4-c]furan-1,4-diyl]bis(2H-1,3-benzodioxole)] |  |  |  |  |  |  |  |  |  |  |  |  |  |  |  |  |  | significantly reduced | can relieve the eye discomfort

From patent US20260041733A1, “COMBINATION FOR USE IN OPHTHALMOLOGY” (Dompe' farmaceutici SPA, priority 2022, published 2026)
